Measured values published in patent US20230407373A1 (priority 2020, published 2023).
Where two headings read alike, the source gives them in different places.

Assays:
Assay type in all cases: binding
HCoV-OC43 gRNA and sgRNA = conditions: for target (unweighted spectral count, OC43 Probe II capture) / target (unweighted spectral count): tested against no-probe control; for target (unweighted spectral count, OC43 Probe II capture): FDR<10%; for target (unweighted spectral count): OC43 Probe II, infected cells; for target (unweighted spectral count, OC43 Probe II) / background (unweighted spectral count, no-probe control): type n_48_v, 48 hpi; for target (unweighted spectral count, OC43 Probe II): OC43 Probe II capture on infected cells; for background (unweighted spectral count, no-probe control): no-probe control on infected cells; for target (spectral count) / background (spectral count): type s_36_m, Probe II; for target (spectral count): HCoV-OC43-infected HCT-8 cells; for background (spectral count): uninfected-probe control
gRNA of HCoV-OC43 = conditions: for target (spectral count) / background (spectral count): type g_36_m, 36 hpi, Probe I; for target (spectral count): HCoV-OC43-infected HCT-8 cells; for background (spectral count): uninfected-probe control; for target (spectral count, OC43 Probe I RNP capture) / background (spectral count, no-probe control): type n_48_v: 48 hours post-infection; for target (spectral count, OC43 Probe I RNP capture): infected cells, unweighted spectral count; for background (spectral count, no-probe control): no-probe control on infected cells
[1] = test system: SARS-CoV-2 gRNA and sgRNAs; conditions: for background (unweighted spectral count in control): no-probe control pull-down, used as background for Probe II; for target (unweighted spectral count in RNP capture): Probe II capture, LC-MS/MS LFQ
SARS-CoV-2 gRNA = conditions: […]; LC-MS/MS; Probe I sample (first 199 lines of Table 2)

Molecule | target (unweighted spectral count, OC43 Probe II capture) (HCoV-OC43 gRNA and sgRNA; 36 hpi, type n_36_v) | target (unweighted spectral count) (HCoV-OC43 gRNA and sgRNA; 12 hpi (type n_12_v)) | target (unweighted spectral count) (HCoV-OC43 gRNA and sgRNA; 24 hpi (type n_24_v)) | target (unweighted spectral count, OC43 Probe II) (HCoV-OC43 gRNA and sgRNA) | background (unweighted spectral count, no-probe control) (HCoV-OC43 gRNA and sgRNA) | target (spectral count) (HCoV-OC43 gRNA and sgRNA; 36 hpi) | background (spectral count) (HCoV-OC43 gRNA and sgRNA; 36 hpi) | target (spectral count) (gRNA of HCoV-OC43) | background (spectral count) (gRNA of HCoV-OC43) | background (unweighted spectral count in control) [1] | target (unweighted spectral count of the protein in the RNP capture) (SARS-CoV-2 gRNA) | target (spectral count, OC43 Probe I RNP capture) (gRNA of HCoV-OC43) | background (spectral count, no-probe control) (gRNA of HCoV-OC43) | target (unweighted spectral count in RNP capture) [1] | target (unweighted spectral count, OC43 Probe II capture) (HCoV-OC43 gRNA and sgRNA; 24 hpi, type n_24_v)
HNRNPL: host protein, UniProt P14866 (protein, UniProt P14866 1-589, looked up) Heterogeneous nuclear …: MSRRLLPRAEKRRRRLEQRQQPDEQRRRSGAMVKMAAAGGGGGGGRYYGGGSEGGRAPKRLKTDNAGDQHGGGGGGGGGAGAAGGGGGGENYDDPHKTPASPVVHIRGLIDGVVEADLVEALQEFGPISYVVVMPKKRQALVEFEDVLGACNAVNYAADNQIYIAGHPAFVNYSTSQKISRPGDSDDSRSVNSVLLFTILNPIYSITTDVLYTICNPCGPVQRIVIFRKNGVQAMVEFDSVQSAQRAKASLNGADIYSGCCTLKIEYAKPTRLNVFKNDQDTWDYTNPNLSGQGDPGSNPNKRQRQPPLLGDHPAEYGGPHGGYHSHYHDEGYGPPPPHYEGRRMGPPVGGHRRGPSRYGPQYGHPPPPPPPPEYGPHADSPVLMVYGLDQSKMNCDRVFNVFCLYGNVEKVKFMKSKPGAAMVEMADGYAVDRAITHLNNNFMFGQKLNVCVSKQPAIMPGQSYGLEDGSCSYKDFSESRNNRFSTPEQAAKNRIQHPSNVLHFFNAPLEVTEENFFEICDELGVKRPSSVKVFSGKSERSSSGLLEWESKSDALETLGFLNHYQMKNPNGPYPYTLKLCFSTAQHAS | 42 | 12 | 25 | 46 | 2 | 42 | 5 | 59 | 6 | 1 | 43 | – | – | – | –
HNRNPA1 (protein, UniProt P09651 1-372, looked up) Heterogeneous nuclear …: MSKSESPKEPEQLRKLFIGGLSFETTDESLRSHFEQWGTLTDCVVMRDPNTKRSRGFGFVTYATVEEVDAAMNARPHKVDGRVVEPKRAVSREDSQRPGAHLTVKKIFVGGIKEDTEEHHLRDYFEQYGKIEVIEIMTDRGSGKKRGFAFVTFDDHDSVDKIVIQKYHTVNGHNCEVRKALSKQEMASASSSQRGRSGSGNFGGGRGGGFGGNDNFGRGGNFSGRGGFGGSRGGGGYGGSGDGYNGFGNDGGYGGGGPGYSGGSRGYGSGGQGYGNQGSGYGGSGSYDSYNNGGGGGFGGGSGSNFGGGGSYNDFGNYNNQSSNFGPMKGGNFGGRSSGPYGGGGQYFAKPRNQGGYGGSSSSSSYGSGRRF | 39 | 24 | 31 | 53 | 7 | – | – | – | – | – | 97 | 82 | 7 | 74 | –
RBM3: host protein, UniProt P98179 (protein, UniProt P98179 1-157, looked up) RNA-binding protein 3: MSSEEGKLFVGGLNFNTDEQALEDHFSSFGPISEVVVVKDRETQRSRGFGFITFTNPEHASVAMRAMNGESLDGRQIRVDHAGKSARGTRGGGFGAHGRGRSYSRGGGDQGYGSGRYYDSRPGGYGYGYGRSRDYNGRNQGGYDRYSGGNYRDNYDN | 10 | – | – | – | – | – | – | 14 | 2 | 1 | 15 | 17 | 1 | 21 | 6
HNRNPDL (protein, UniProt O14979 1-420, looked up) Heterogeneous nuclear …: MEVPPRLSHVPPPLFPSAPATLASRSLSHWRPRPPRQLAPLLPSLAPSSARQGARRAQRHVTAQQPSRLAGGAAIKGGRRRRPDLFRRHFKSSSIQRSAAAAAATRTARQHPPADSSVTMEDMNEYSNIEEFAEGSKINASKNQQDDGKMFIGGLSWDTSKKDLTEYLSRFGEVVDCTIKTDPVTGRSRGFGFVLFKDAASVDKVLELKEHKLDGKLIDPKRAKALKGKEPPKKVFVGGLSPDTSEEQIKEYFGAFGEIENIELPMDTKTNERRGFCFITYTDEEPVKKLLESRYHQIGSGKCEIKVAQPKEVYRQQQQQQKGGRGAAAGGRGGTRGRGRGQGQNWNQGFNNYYDQGYGNYNSAYGGDQNYSGYGGYDYTGYNYGNYGYGQGYADYSGQQSTYGKASRGGGNHQNNYQPY | – | 6 | 9 | 18 | 3 | – | – | – | – | 1 | 25 | 17 | 3 | 25 | –
DDX5: host protein, UniProt P17844 (protein, UniProt P17844 1-614, looked up) Probable ATP-dependent RNA …: MSGYSSDRDRGRDRGFGAPRFGGSRAGPLSGKKFGNPGEKLVKKKWNLDELPKFEKNFYQEHPDLARRTAQEVETYRRSKEITVRGHNCPKPVLNFYEANFPANVMDVIARQNFTEPTAIQAQGWPVALSGLDMVGVAQTGSGKTLSYLLPAIVHINHQPFLERGDGPICLVLAPTRELAQQVQQVAAEYCRACRLKSTCIYGGAPKGPQIRDLERGVEICIATPGRLIDFLECGKTNLRRTTYLVLDEADRMLDMGFEPQIRKIVDQIRPDRQTLMWSATWPKEVRQLAEDFLKDYIHINIGALELSANHNILQIVDVCHDVEKDEKLIRLMEEIMSEKENKTIVFVETKRRCDELTRKMRRDGWPAMGIHGDKSQQERDWVLNEFKHGKAPILIATDVASRGLDVEDVKFVINYDYPNSSEDYIHRIGRTARSTKTGTAYTFFTPNNIKQVSDLISVLREANQAINPKLLQLVEDRGSGRSRGRGGMKDDRRDRYSAGKRGGFNTFRDRENYDRGYSSLLKRDFGAKTQNGVYSAANYTNGSFGSNFVSAGIQTSFRTGNPTGTYQNGYDSTQQYGSNVPNMHNGMNQQAYAYPATAAAPMIGYPMPTGYSQ | – | 8 | – | 31 | 3 | 33 | 3 | 30 | 3 | 1 | 32 | 30 | 3 | 24 | –
SERBP1 (protein, UniProt Q8NC51 2-408, looked up) SERPINE1 mRNA-binding protein …: PGHLQEGFGCVVTNRFDQLFDDESDPFEVLKAAENKKKEAGGGGVGGPGAKSAAQAAAQTNSNAAGKQLRKESQKDRKNPLPPSVGVVDKKEETQPPVALKKEGIRRVGRRPDQQLQGEGKIIDRRPERRPPRERRFEKPLEEKGEGGEFSVDRPIIDRPIRGRGGLGRGRGGRGRGMGRGDGFDSRGKREFDRHSGSDRSSFSHYSGLKHEDKRGGSGSHNWGTVKDELTESPKYIQKQISYNYSDLDQSNVTEETPEGEEHHPVADTENKENEVEEVKEEGPKEMTLDEWKAIQNKDRAKVEFNIRKPNEGADGQWKKGFVLHKSKSEEAHAEDSVMDHHFRKPANDITSQLEINFGDLGRPGRGGRGGRGGRGRGGRPNRGSRTDKSSASAPDVDDPEAFPALA | 15 | – | 6 | 18 | 4 | – | – | – | – | 1 | 17 | 19 | 4 | 30 | –
SFPQ: host protein, UniProt P23246 (protein, UniProt P23246 1-707, looked up) Splicing factor, proline- and …: MSRDRFRSRGGGGGGFHRRGGGGGRGGLHDFRSPPPGMGLNQNRGPMGPGPGQSGPKPPIPPPPPHQQQQQPPPQQPPPQQPPPHQPPPHPQPHQQQQPPPPPQDSSKPVVAQGPGPAPGVGSAPPASSSAPPATPPTSGAPPGSGPGPTPTPPPAVTSAPPGAPPPTPPSSGVPTTPPQAGGPPPPPAAVPGPGPGPKQGPGPGGPKGGKMPGGPKPGGGPGLSTPGGHPKPPHRGGGEPRGGRQHHPPYHQQHHQGPPPGGPGGRSEEKISDSEGFKANLSLLRRPGEKTYTQRCRLFVGNLPADITEDEFKRLFAKYGEPGEVFINKGKGFGFIKLESRALAEIAKAELDDTPMRGRQLRVRFATHAAALSVRNLSPYVSNELLEEAFSQFGPIERAVVIVDDRGRSTGKGIVEFASKPAARKAFERCSEGVFLLTTTPRPVIVEPLEQLDDEDGLPEKLAQKNPMYQKERETPPRFAQHGTFEYEYSQRWKSLDEMEKQQREQVEKNMKDAKDKLESEMEDAYHEHQANLLRQDLMRRQEELRRMEELHNQEMQKRKEMQLRQEEERRRREEEMMIRQREMEEQMRRQREESYSRMGYMDPRERDMRMGGGGAMNMGDPYGSGGQKFPPLGGGGGIGYEANPGVPPATMSGSMMGSDMRTERFGQGGAGPVGGQGPRGMGPGTPAGYGRGREEYEGPNKKPRF | 36 | – | 16 | 33 | 7 | 36 | 3 | 33 | 7 | 1 | 50 | 39 | 7 | 38 | –
